Measured values: patent US20240252667A1

Legend:
[1] = target: human insulin receptor extracellular domain (HIR ECD) (human) (UniProt P06213); test: ELISA, HIR ECD plated, biotinylated goat anti-human IgG detection
[2] = target: human insulin receptor extracellular domain (HIR ECD) (human) (UniProt P06213); test: ELISA, HIR ECD plated (HIR receptor assay)
[3] = target: human insulin receptor extracellular domain (HIR ECD) (human) (UniProt P06213); test: ELISA, HIR ECD plated; against HIR Ab alone

| EC50 [1] [nM] | EC50 [2] [nM] | reduction in receptor binding affinity [3] [%] | Substance |
| --- | --- | --- | --- |
| 0.81 | – | – | HIR Ab-GUSB fusion protein (GUSB fused to the carboxyl terminus of the HIR Ab heavy chain) (from UniProt P08236 23-633) (antibody) |
| – | 4.8 | 95 | GUSB-HIR Ab fusion protein (GUSB fused to the amino terminus of the HIR Ab heavy chain) (from UniProt P08236 23-633) (antibody) |
